According to patent publication US20240368668:

Tests used:
[1] = target: T1, purified recombinant human HA-tagged EFEMP1/Fibulin-3 (R&D, 8416-FB), Q12805
T1 chain: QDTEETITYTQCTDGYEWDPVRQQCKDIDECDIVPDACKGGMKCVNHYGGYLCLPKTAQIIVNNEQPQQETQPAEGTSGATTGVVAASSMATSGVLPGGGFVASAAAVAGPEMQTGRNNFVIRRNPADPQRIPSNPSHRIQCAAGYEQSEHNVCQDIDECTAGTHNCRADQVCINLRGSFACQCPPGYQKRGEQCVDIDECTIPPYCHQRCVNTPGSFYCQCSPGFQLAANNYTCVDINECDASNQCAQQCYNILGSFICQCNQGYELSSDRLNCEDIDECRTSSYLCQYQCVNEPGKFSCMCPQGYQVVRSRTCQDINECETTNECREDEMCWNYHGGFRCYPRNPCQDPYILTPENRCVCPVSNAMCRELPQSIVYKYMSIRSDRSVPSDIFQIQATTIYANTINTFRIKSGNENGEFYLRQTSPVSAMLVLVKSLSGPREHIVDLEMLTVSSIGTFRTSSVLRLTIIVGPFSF

[2] = target: T2, endogenous EFEMP1 (EGF-containing fibulin-like extracellular matrix protein 1, Fibulin-3) secreted by HUVEC, Q12805
T2 chain: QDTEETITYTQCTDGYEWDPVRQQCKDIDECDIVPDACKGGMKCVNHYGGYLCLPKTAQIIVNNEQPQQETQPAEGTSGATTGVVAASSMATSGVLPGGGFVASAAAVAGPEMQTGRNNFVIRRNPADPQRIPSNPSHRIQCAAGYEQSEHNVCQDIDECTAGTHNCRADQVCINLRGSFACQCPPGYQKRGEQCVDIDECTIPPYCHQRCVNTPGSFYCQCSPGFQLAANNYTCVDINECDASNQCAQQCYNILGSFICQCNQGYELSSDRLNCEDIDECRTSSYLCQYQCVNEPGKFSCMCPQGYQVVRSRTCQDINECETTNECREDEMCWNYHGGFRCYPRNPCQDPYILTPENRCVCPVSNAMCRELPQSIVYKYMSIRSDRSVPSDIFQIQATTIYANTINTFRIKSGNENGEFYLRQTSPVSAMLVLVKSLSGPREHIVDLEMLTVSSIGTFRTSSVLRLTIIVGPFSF

[3] = target: Q68SA9

B1: purified full-length mouse ADAMTS7 S3A EQ (catalytic mutant E373Q) (protein)
chain: SVAKEKWVETLVVADSKMVEYHGQPQVESYVLTIMNMVAGLFHDPSIGNPIHISIVRLIILEDEEKDLKITHHAEETLKNFCRWQKNINIKGDDHPQHHDTAILLTRKDLCASMNQPCETLGLSHVSGLCHPQLSCSVSEDTGMPLAFTVAHQLGHSFGIQHDGTGNDCESIGKRPFIMSPQLLYDRGIPLTWSRCSREYITRFLDRGWGLCLDDRPSKDVIALPSVLPGVLYDVNHQCRLQYGSHSAYCEDMDDVCHTLWCSVGTTCHSKLDAAVDGTSCGKNKWCLKGECVPEGFQPEAVDGGWSGWSAWSDCSRSCGVGVRSSERQCTQPVPKNRGKYCVGERKRSQLCNLPACPPDRPSFRHTQCSQFDGMLYKGKLHKWVPVPNDDNPCELHCRPSNSSNTEKLRDAVVDGTPCYQSRISRDICLNGICKNVGCDFVIDSGAEEDRCGVCRGDGSTCQTVSRTFKETEGQGYVDIGLIPAGAREILIEEVAEAANFLALRSEDPDKYFLNGGWTIQWNGDYRVAGTTFTYARKGNWENLTSPGPTSEPVWIQLLFQEKNPGVHYQYTIQRDSHDQVRPPEFSWHYGPWSKCTVTCGTGVQRQSLYCMERQAGVVAEEYCNTLNRPDERQRKCSEEPCPPRWWAGEWQPCSRSCGPEGLSRRAVFCIRSMGLDEQRALELSACEHLPRPLAETPCNRHVICPSTWGVGNWSQCSVTCGAGIRQRSVLCINNTDVPCDEAERPITETFCFLQPCQYPMYIVDTGASGSGSSSPELFNEVDFIPNQLAPRPSPASSPKPVSISNAIDEEELDPPGPVFVDDFYYDYNFINFHEDLSYGSFEEPHPDLVDNGGWTAPPHIRPTESPSDTPVPTAGALGAEAEDIQGSWSPSPLLSEASYSPPGLEQTSINPLANFLTEEDTPMGAPELGFPSLPWPPASVDDMMTPVGPGNPDELLVKEDEQSPPSTPWSDRNKLSTDGNPLGHTSPALPQSPIPTQPSPPSISPTQASPSPDVVEVSTGWNAAWDPVLEADLKPGHGELPSTVEVASPPLLPMATVPGIWGRDSPLEPGTPTFSSPELSSQHLKTLTMPGTLLLTVPTDLRSPGPSGQPQTPNLEGTQSPGLLPTPARETQTNSSKDPEVQPLQPSLEEDGDPADPLPARNASWQVGNWSQCSTTCGLGAIWRLVSCSSGNDEDCTLASRPQPARHCHLRPCAAWRTGNWSKCSRNCGGGSSTRDVQCVDTRDLRPLRPFHCQPGPTKPPNRQLCGTQPCLPWYTSSWRECSEACGGGEQQRLVTCPEPGLCEESLRPNNSRPCNTHPCTQWVVGPWGQCSAPCGGGVQRRLVRCVNTQTGLAEEDSDLCSHEAWPESSRPCATEDCELVEPPRCERDRLSFNFCETLRLLGRCQLPTIRAQCCRSCPPLSRGVPSRGHQRVARR
- in vitro cleavage, western blot and mass spectrometry of gel bands [1]: background cleavage under conditions with no enzyme or with ADAMTS7 S3A EQ treatment, however these occurrences were relatively minor compared to the activity stimulated by ADAMTS7 S3A WT

B2: full-length mouse Adamts7 1-1857 E373Q catalytic mutant with a carboxyl terminal 3xFLAG tag, expressed from adenovirus (protein)
chain: SVSKEKWVETLVVADSKMVEYHGQPQVESYVLTIMNMVAGLFHDPSIGNPIHISIVRLIILEDEEKDLKITHHAEETLKNFCRWQKNINIKGDDHPQHHDTAILLTRKDLCASMNQPCETLGLSHVSGLCHPQLSCSVSEDTGMPLAFTVAHQLGHSFGIQHDGTGNDCESIGKRPFIMSPQLLYDRGIPLTWSRCSREYITRFLDRGWGLCLDDRPSKDVIALPSVLPGVLYDVNHQCRLQYGSHSAYCEDMDDVCHTLWCSVGTTCHSKLDAAVDGTSCGKNKWCLKGECVPEGFQPEAVDGGWSGWSAWSDCSRSCGVGVRSSERQCTQPVPKNRGKYCVGERKRSQLCNLPACPPDRPSFRHTQCSQFDGMLYKGKLHKWVPVPNDDNPCELHCRPSNSSNTEKLRDAVVDGTPCYQSRISRDICLNGICKNVGCDFVIDSGAEEDRCGVCRGDGSTCQTVSRTFKETEGQGYVDIGLIPAGAREILIEEVAEAANFLALRSEDPDKYFLNGGWTIQWNGDYRVAGTTFTYARKGNWENLTSPGPTSEPVWIQLLFQEKNPGVHYQYTIQRDSHDQVRPPEFSWHYGPWSKCTVTCGTGVQRQSLYCMERQAGVVAEEYCNTLNRPDERQRKCSEEPCPPRWWAGEWQPCSRSCGPEGLSRRAVFCIRSMGLDEQRALELSACEHLPRPLAETPCNRHVICPSTWGVGNWSQCSVTCGAGIRQRSVLCINNTDVPCDEAERPITETFCFLQPCQYPMYIVDTGASGSGSSSPELFNEVDFIPNQLAPRPSPASSPKPVSISNAIDEEELDPPGPVFVDDFYYDYNFINFHEDLSYGSFEEPHPDLVDNGGWTAPPHIRPTESPSDTPVPTAGALGAEAEDIQGSWSPSPLLSEASYSPPGLEQTSINPLANFLTEEDTPMGAPELGFPSLPWPPASVDDMMTPVGPGNPDELLVKEDEQSPPSTPWSDRNKLSTDGNPLGHTSPALPQSPIPTQPSPPSISPTQASPSPDVVEVSTGWNAAWDPVLEADLKPGHGELPSTVEVASPPLLPMATVPGIWGRDSPLEPGTPTFSSPELSSQHLKTLTMPGTLLLTVPTDLRSPGPSGQPQTPNLEGTQSPGLLPTPARETQTNSSKDPEVQPLQPSLEEDGDPADPLPARNASWQVGNWSQCSTTCGLGAIWRLVSCSSGNDEDCTLASRPQPARHCHLRPCAAWRTGNWSKCSRNCGGGSSTRDVQCVDTRDLRPLRPFHCQPGPTKPPNRQLCGTQPCLPWYTSSWRECSEACGGGEQQRLVTCPEPGLCEESLRPNNSRPCNTHPCTQWVVGPWGQCSAPCGGGVQRRLVRCVNTQTGLAEEDSDLCSHEAWPESSRPCATEDCELVEPPRCERDRLSFNFCETLRLLGRCQLPTIRAQCCRSCPPLSRGVPSRGHQRVARR
- cleavage of endogenous EFEMP1 in HUVEC media, mass spectrometry [2]: these sites were not detected in the Luc or EQ samples

B3: full-length mouse Adamts7 1-1857 WT with a carboxyl terminal 3xFLAG tag, expressed from adenovirus (protein)
chain: SVSKEKWVETLVVADSKMVEYHGQPQVESYVLTIMNMVAGLFHDPSIGNPIHISIVRLIILEDEEKDLKITHHAEETLKNFCRWQKNINIKGDDHPQHHDTAILLTRKDLCASMNQPCETLGLSHVSGLCHPQLSCSVSEDTGMPLAFTVAHELGHSFGIQHDGTGNDCESIGKRPFIMSPQLLYDRGIPLTWSRCSREYITRFLDRGWGLCLDDRPSKDVIALPSVLPGVLYDVNHQCRLQYGSHSAYCEDMDDVCHTLWCSVGTTCHSKLDAAVDGTSCGKNKWCLKGECVPEGFQPEAVDGGWSGWSAWSDCSRSCGVGVRSSERQCTQPVPKNRGKYCVGERKRSQLCNLPACPPDRPSFRHTQCSQFDGMLYKGKLHKWVPVPNDDNPCELHCRPSNSSNTEKLRDAVVDGTPCYQSRISRDICLNGICKNVGCDFVIDSGAEEDRCGVCRGDGSTCQTVSRTFKETEGQGYVDIGLIPAGAREILIEEVAEAANFLALRSEDPDKYFLNGGWTIQWNGDYRVAGTTFTYARKGNWENLTSPGPTSEPVWIQLLFQEKNPGVHYQYTIQRDSHDQVRPPEFSWHYGPWSKCTVTCGTGVQRQSLYCMERQAGVVAEEYCNTLNRPDERQRKCSEEPCPPRWWAGEWQPCSRSCGPEGLSRRAVFCIRSMGLDEQRALELSACEHLPRPLAETPCNRHVICPSTWGVGNWSQCSVTCGAGIRQRSVLCINNTDVPCDEAERPITETFCFLQPCQYPMYIVDTGASGSGSSSPELFNEVDFIPNQLAPRPSPASSPKPVSISNAIDEEELDPPGPVFVDDFYYDYNFINFHEDLSYGSFEEPHPDLVDNGGWTAPPHIRPTESPSDTPVPTAGALGAEAEDIQGSWSPSPLLSEASYSPPGLEQTSINPLANFLTEEDTPMGAPELGFPSLPWPPASVDDMMTPVGPGNPDELLVKEDEQSPPSTPWSDRNKLSTDGNPLGHTSPALPQSPIPTQPSPPSISPTQASPSPDVVEVSTGWNAAWDPVLEADLKPGHGELPSTVEVASPPLLPMATVPGIWGRDSPLEPGTPTFSSPELSSQHLKTLTMPGTLLLTVPTDLRSPGPSGQPQTPNLEGTQSPGLLPTPARETQTNSSKDPEVQPLQPSLEEDGDPADPLPARNASWQVGNWSQCSTTCGLGAIWRLVSCSSGNDEDCTLASRPQPARHCHLRPCAAWRTGNWSKCSRNCGGGSSTRDVQCVDTRDLRPLRPFHCQPGPTKPPNRQLCGTQPCLPWYTSSWRECSEACGGGEQQRLVTCPEPGLCEESLRPNNSRPCNTHPCTQWVVGPWGQCSAPCGGGVQRRLVRCVNTQTGLAEEDSDLCSHEAWPESSRPCATEDCELVEPPRCERDRLSFNFCETLRLLGRCQLPTIRAQCCRSCPPLSRGVPSRGHQRVARR
- auto-cleavage, western blot of HUVEC media [3]: ADAMTS7 WT migrated at two bands matching the observed autocleavage event in the mucin domain
- cleavage of endogenous EFEMP1 in HUVEC media, western blot and mass spectrometry [2]: identified semi-tryptic and semi-chymotryptic peptides indicating cleavage at 123.124 and 124.125 sites from the Ad-ADAMTS7 WT sample
- relative cleavage at 123.124 against 124.125 (TAILS log FC and total intensities) [2]: predicting 2-3 fold more cleavage at 123.124 (ASAA|AVAG) (SEQ ID NO: 1) compared to the adjacent 124.125 (SAAA|VAGP) (SEQ ID NO: 2) site
